Results taken from US12630596B2, “Engineered lysin-human defensin protein” (priority 2018, dated 2026).
“Also recorded” adds a separate entry of the source.

Key:
[1] = test system: C. difficile R20291; assay: Optical drop assay, lytic activity on C. difficile R20291; format: cell-based, Clostridium difficile; settings: strain R20291, 200 μg/ml
Description: (§1) The lytic activity of proteins LHD and LCD against C. difficile strains was determined as previously described (Wang, Euler et al. 2015). Briefly, C. difficile strains were cultured in an anaerobic chamber to mid-log phase, and the bacterial pellets were harvested by centrifugation at 3000×g for 5 min. Pellets were washed twice and re-suspended in sterilized ddH2O, and resuspensions were not buffered. Prior to tests, bacterial optical density at 600 nm (OD600) was adjusted to approximately 0.8-1.0. Proteins LHD and LCD were added into the cell re-suspension with the final concentration of 200 μg/ml. The drop in OD600 at 37° C. was measured every 10 minutes for 60 min˜90 min. Bacterial re-suspension with sterilized water was also set as a control. Three repeats were included in each test.

[2] = test system: C. difficile strains M120, VPI 10463, CD630, LC693, 1377; assay: Optical drop assay, lytic activity on other clinical epidemic C. difficile strains; format: cell-based, Clostridium difficile
From the text: C. difficile strains R20291 (ribotype 027), M120 (ribotype 078), VPI 10463 (ribotype 087; ATCC 43255), CD630 (ribotype 012), LC693 (ribotype unknown, ST201), and 1377 (ribotype 012) were used in this study. Strains M120 and VPI 10463 were provided by Dr. Joseph A. Sorg from Texas A&M University. Strains R20291 and CD630 were provided by Dr. Abraham L. Sonenshein from Tufts University. Strains 1377 and LC693 were epidemic clinical strains in China (Li, Liu et al. 2015, Peng, Liu et al. 2017).
as §1

[3] = molecular target: Clostridium difficile toxin B (TcdB) (Clostridioides difficile, UniProt P18177); assay: Inhibition of TcdB cytotoxicity in CT26 cells (cell rounding, non-glucosylated Rac1 Western blot); format: cell-based; settings: pre-treatment 750 ng/ml 1 hr, TcdB 15 ng/ml 5 hrs
Description: (FIG. 5A) LHD inhibits TcdB-induced cell rounding. CT26 cells in 12-well plates were exposed to HD or LHD at 750 ng/ml (50 times of TcdB concentration) or nothing for 1 hour, followed by exposure to TcdB at 15 ng/ml for 5 hours. (FIG. 5B) Western-blot analysis of non-glucosylated Rac1 in CT26 cells treated with TcdB in the presence or absence of LHD or HD. TcdB glucosylates Rac1 in cells, serving as a readout for toxin cytotoxicity. Quantitation of Rac1 levels in Western-blot was shown in low panel (*p<0.05). (FIG. 5C) CT26 cells were lysed, and the cytosolic fraction was exposed to TcdB (15 ng/ml) with or without HD at 750 ng/ml (50 times of TcdB concentration) or LHD at 1500 ng/ml (same molecular concentration as HD) or nothing for 1 h followed by Western Blot analysis using a monoclonal antibody that only recognizes non-glucosylated Rac1. β-actin was used as an equal loading control. Quantitation of Rac1 levels in Western-blot was shown in low panel (****p<0.0001).
It was reported that the human defensin protein HD5 (HD) could inhibit TcdB (Giesemann, Guttenberg et al. 2008). Therefore, we evaluated the inhibitory effects of LHD and HD on TcdB. Briefly, CT26 cells in 12-well plates were exposed to LHD, synthesized HD or PBS at 750 ng/ml (50 times of TcdB concentration) for 1 hr, followed by exposure to TcdB at 15 ng/ml for 5 hrs. Total cell lysates were subjected to 12% SDS-PAGE separation, and transferred onto a Nylon membrane. Following blocking for 1 hr at room temperature with 5% skim milk, the membrane was incubated overnight at 4° C. with RAC1 antibody (1:1000, Cat: 610650, BD Biosciences) and β-actin antibody (1:10000, Cat: A5441, Sigma-Aldrich).

[4] = test system: C. difficile R20291; assay: Lytic activity of LHD after incubation with mouse intestinal contents; format: in vitro ADME; settings: 37° C., 1 hr
Description: Protein LHD was incubated with mouse intestinal contents at 37° C. for 15, 30 or 60 minutes, then optical drop assays were performed on C. difficile R20291 to test the lytic activity of LHD at a concentration of 100 μg/ml. Experiments were repeated 3 times, and representative data were shown.
To appreciate the stability and activity of LHD in the mouse intestine, […] was incuated with freshly prepaerd mouse intestinal contents for 15 min, 30 min and 60 min, and retrived by centrifugation. Lytic activities of LHD treated with intestinal contents were determined on strain C. difficile R20291 as described above.

Chain of Clostridium difficile toxin B (TcdB) (P18177 whole entry): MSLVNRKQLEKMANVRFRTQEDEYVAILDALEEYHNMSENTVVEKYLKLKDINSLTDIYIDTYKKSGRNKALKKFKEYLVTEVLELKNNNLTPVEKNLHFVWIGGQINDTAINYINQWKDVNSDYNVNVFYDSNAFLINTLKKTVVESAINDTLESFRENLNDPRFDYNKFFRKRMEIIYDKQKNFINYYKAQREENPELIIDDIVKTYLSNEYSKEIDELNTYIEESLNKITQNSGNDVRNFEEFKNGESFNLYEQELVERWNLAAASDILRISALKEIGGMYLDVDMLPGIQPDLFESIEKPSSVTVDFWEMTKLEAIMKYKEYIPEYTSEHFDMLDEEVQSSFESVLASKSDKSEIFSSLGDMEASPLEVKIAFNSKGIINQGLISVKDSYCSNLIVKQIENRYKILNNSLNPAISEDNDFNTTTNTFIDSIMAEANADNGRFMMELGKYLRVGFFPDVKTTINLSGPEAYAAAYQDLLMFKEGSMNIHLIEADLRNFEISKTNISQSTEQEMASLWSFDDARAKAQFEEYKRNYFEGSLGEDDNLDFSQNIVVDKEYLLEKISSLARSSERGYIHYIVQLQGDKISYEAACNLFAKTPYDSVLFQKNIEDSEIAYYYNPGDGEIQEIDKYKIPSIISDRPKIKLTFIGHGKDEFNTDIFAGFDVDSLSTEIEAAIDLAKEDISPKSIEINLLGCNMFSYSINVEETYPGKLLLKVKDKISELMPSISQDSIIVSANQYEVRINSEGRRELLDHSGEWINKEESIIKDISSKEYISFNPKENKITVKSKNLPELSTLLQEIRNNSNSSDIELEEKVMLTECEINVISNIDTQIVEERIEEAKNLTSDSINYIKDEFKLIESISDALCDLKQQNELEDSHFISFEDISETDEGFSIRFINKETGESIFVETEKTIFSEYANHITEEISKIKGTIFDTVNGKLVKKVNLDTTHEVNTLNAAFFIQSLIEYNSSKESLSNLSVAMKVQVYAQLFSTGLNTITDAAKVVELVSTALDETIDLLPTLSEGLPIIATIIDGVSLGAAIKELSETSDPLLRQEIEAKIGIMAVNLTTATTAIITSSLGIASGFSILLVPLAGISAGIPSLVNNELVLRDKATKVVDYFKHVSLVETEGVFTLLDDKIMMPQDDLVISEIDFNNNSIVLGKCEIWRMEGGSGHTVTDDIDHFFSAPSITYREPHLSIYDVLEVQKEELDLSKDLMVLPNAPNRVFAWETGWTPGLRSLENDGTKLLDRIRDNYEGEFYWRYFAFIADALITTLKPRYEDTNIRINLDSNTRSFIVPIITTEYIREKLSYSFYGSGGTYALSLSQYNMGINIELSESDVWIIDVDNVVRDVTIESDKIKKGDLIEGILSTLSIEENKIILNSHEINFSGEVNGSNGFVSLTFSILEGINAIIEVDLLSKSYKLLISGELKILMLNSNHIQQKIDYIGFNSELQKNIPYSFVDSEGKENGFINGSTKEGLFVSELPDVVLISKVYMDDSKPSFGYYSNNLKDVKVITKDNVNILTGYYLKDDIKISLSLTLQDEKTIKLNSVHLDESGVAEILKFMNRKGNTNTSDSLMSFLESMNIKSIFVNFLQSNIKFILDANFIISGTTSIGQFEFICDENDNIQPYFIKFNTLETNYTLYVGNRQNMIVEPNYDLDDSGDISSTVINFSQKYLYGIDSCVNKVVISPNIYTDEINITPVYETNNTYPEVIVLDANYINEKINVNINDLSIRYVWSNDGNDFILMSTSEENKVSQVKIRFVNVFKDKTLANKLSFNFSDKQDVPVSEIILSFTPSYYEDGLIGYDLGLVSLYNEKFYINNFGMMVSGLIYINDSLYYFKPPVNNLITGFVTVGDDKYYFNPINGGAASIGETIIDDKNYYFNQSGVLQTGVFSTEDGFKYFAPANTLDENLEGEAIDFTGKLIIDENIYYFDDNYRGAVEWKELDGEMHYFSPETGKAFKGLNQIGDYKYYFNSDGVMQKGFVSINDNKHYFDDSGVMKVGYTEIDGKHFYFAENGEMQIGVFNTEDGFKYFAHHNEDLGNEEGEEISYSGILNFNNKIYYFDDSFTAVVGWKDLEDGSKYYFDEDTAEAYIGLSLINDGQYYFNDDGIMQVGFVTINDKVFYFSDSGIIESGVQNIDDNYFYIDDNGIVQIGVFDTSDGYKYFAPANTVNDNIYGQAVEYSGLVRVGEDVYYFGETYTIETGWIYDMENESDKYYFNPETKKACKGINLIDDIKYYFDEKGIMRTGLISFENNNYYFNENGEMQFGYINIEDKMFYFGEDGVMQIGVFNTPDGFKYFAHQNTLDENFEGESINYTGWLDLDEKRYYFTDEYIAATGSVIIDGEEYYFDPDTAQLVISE

B1: LHD: Fusion of phage phiC2 lysin catalytic domain (LCD, 179aa), (GGGGS)3 linker and human alpha-defensin 5; SEQ ID NO:1 (protein)
chain: MKICITVGHSILKSGACTSADGVVNEYQYNKSLAPVLADTFRKEGHKVDVIICPEKQFKTKNEEKSYKIPRVNSGGYDLLIELHLNASNGQGKGSEVLYYSNKGLEYATRICDKLGTVFKNRGAKLDKRLYILNSSKPTAVLIESFFCDNKEDYDKAKKLGHEGIAKLIVEGVLNKNINGGGGSGGGGSGGGGSATCYCRTGRCATRESLSGVCEISGRLYRLCCR
- lytic activity (drop in OD600) [1]: potent lytic activities
- lytic activity (drop in OD600) ([2]; different types of clinical epidemic strains, 200 μg/ml): potent lytic activities
- lytic activity compared with LCD ([2]; strain M120, p<0.05): more potent than LCD
- lytic activity compared with LCD ([2]; strains VP110463, CD630, LC693 and 1377): slightly more potent
- cell rounding caused by TcdB [3]: decreased cell rounding; also recorded: comparable to human defensin peptide HD5
- non-glucosylated Rac1 in cells (readout of cytotoxicity of TcdB) [3]: significant increase
- lytic activity after treatment with intestinal contents [4]: did not affect lytic activity
